Results taken from the supplement of paper PMC10126150.
± gives the standard deviation of the averaged measurements.

Tested on: ATP
Experiment: switch fluorescence ratio, 500 uM ATP over buffer (Cy3 cluster intensity, sum of 5 cycles each) (fold (ratio)); higher = stronger signal-on switching upon ATP binding; sequences stand for … in TCGTCGGCAGCGTCAGATGTGTATAAGAGACAGTTTTTTTTTTTTTTTTTTTTTTTTT…TC
Settings: aptamer strand: ATP DNA aptamer (quencher-CACCTGGGGGAGTATTGCGGAGGAAGG + anchor), 100 nM annealed; ATP concentration: 500 uM
In short: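 Clusters with intensities outside 100-1000 RFU were excluded. The remaining Cy3-labelled switching-strand clusters on a modified Illumina MiSeq flow-cell had been annealed to 100 nM quencher-labelled ATP aptamer and imaged in selection buffer, then after 15 min with 500 uM ATP at 22 °C, for five cycles separated by NaOH stripping and re-annealing. The fluorescence ratio, averaged per switch-domain sequence, is each cluster's summed target-cycle Cy3 intensity over its summed buffer-cycle Cy3 intensity.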
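Note: ATP exposure 15 min at 22 °C before imaging.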

Sequence | switch fluorescence ratio
GTTTGTCACC | 1.03 ± 0.034
AACATTTTTC | 1.01 ± 0.021
TTTGATTGCG | 1 ± 0.011
TGTTGTAAAG | 0.985 ± 0.03
AAGAATCAGA | 0.98 ± 0.015
GATTTTTGTG | 0.992 ± 0.018
CCGGGGGATG | 1.03 ± 0.042
CTGGTTTTGT | 1.04 ± 0.014
TTATATTCTT | 0.9964 ± 0.0042
ATGGCTACCG | 1.01 ± 0.033
TATGGGGGGC | 0.983 ± 0.047
TTCAGTTTTG | 0.982 ± 0.024
GGCGGCCGGA | 1.002 ± 0.0084
AGATAGATCT | 0.9871 ± 0.0059
ATAAGCTTGC | 1.128 ± 0.0064
AAGGGGCGCA | 0.969 ± 0.045
GCTATGAACC | 1.0349 ± 0.0008
TCCGGGAGTG | 1.078 ± 0.0027
AACATATGGG | 1 ± 0.012
ATGGGGGGAT | 1.23 ± 0.58
TGGGCTAAAT | 0.987 ± 0.027
TTTTCGCTAA | 1.55 ± 0.96
CAAAACGTAG | 1.01 ± 0.025

Sequence | switch fluorescence ratio
TACAATTTGA | 0.954 ± 0.018
TCTGTTCTT | 1 ± 0.023
GGTTTTTTAA | 0.995 ± 0.011
TTGTTTGTAA | 1.04 ± 0.018
ATGTTTTCTC | 0.993 ± 0.013
TGGGGTAAGT | 0.993 ± 0.032
CGGGGGATCC | 1.13 ± 0.16
CTAGTTTGAG | 1.01 ± 0.01
AAAAACACTT | 1.04 ± 0.022
CAGGTTTCGT | 0.989 ± 0.021
GGGTACGCAC | 1.82 ± 0.034
TCAATCTAAC | 1.35 ± 0.55
AAAGGGCGTG | 0.985 ± 0.022
GTCCATCCCA | 1.001 ± 0.009
ATTTGAGGTA | 1.01 ± 0.012
CGTATAGGGA | 1.015 ± 0.01
TTCTTTGTTT | 1.01 ± 0.024
CGTGTAGGGG | 1.03 ± 0.017
TATAGATGAC | 0.989 ± 0.017
GCAAGAATTT | 0.982 ± 0.046
AGTGATGTGG | 1 ± 0.024
TAAGGCTGAA | 1.02 ± 0.039
AGTCAAATGG | 0.996 ± 0.043

Sequence | switch fluorescence ratio
CAGTGAGGGG | 0.984 ± 0.029
TTTACCTAGA | 0.997 ± 0.025
TGACTTGGGT | 0.991 ± 0.01
TGCATGTTGG | 0.9937 ± 0.0017
TGACTCGGGC | 0.993 ± 0.022
TTGGTGAACG | 0.989 ± 0.024
TATAATTGCG | 0.977 ± 0.036
CTGGCTGGTG | 1.1 ± 0.026
AAAGCTTGGA | 1.03 ± 0.058
ATAGATGAGT | 1.012 ± 0.0048
TCCTGAAATT | 0.987 ± 0.015
CGTTTGTGTG | 1.01 ± 0.011
TATTGGCTAA | 0.987 ± 0.034
CTTATCGAAG | 0.968 ± 0.015
GGACTTAATG | 1.02 ± 0.016
TGATTCATTG | 1.034 ± 0.01
GGTTCAGGGT | 1.02 ± 0.023
ATCGATGAGC | 1.006 ± 0.004
CGTGGGGCGA | 1.03 ± 0.025
AGCTTGATTT | 1.01 ± 0.039
GCACTTGTAA | 1.005 ± 0.0056
TTGATAAAGG | 1.02 ± 0.026
TAGGGGAGGC | 0.984 ± 0.016

Sequence | switch fluorescence ratio
TATCTAGGTC | 0.954 ± 0.086
TTTCGAGTCA | 1 ± 0.03
CGGGTTCGAG | 0.959 ± 0.001
CGTTGGGGCG | 0.931 ± 0.035
TATACCGGTA | 1.022 ± 0.0067
ACCATGCGTT | 0.992 ± 0.03
AGTGCAGGGA | 0.9894 ± 0.0077
ATTATAAGGT | 1.06 ± 0.0055
GCGATTAAAG | 1 ± 0.014
GAGGGTTAGT | 0.9866 ± 0.0066
CATGGGGCTA | 1.02 ± 0.031
GCTGATACTT | 1.07 ± 0.02
TTAACTGGTA | 0.9904 ± 0.0016
ATGTCGATGC | 1.01 ± 0.032
ACTCGTTTCG | 1 ± 0.013
GATGGGTATG | 0.995 ± 0.01
TATGGGGGTC | 1.02 ± 0.015
CAAATTCGAG | 0.984 ± 0.0033
AGATAAAATT | 0.98 ± 0.056
TGAACGGTTC | 1.02 ± 0.021
CCAGGGCAGC | 1.06 ± 0.079
GGTCTGTTTG | 0.97 ± 0.025
TTGAGTAATG | 1.01 ± 0.017

Sequence | switch fluorescence ratio
AAATTTTCC | 1.34 ± 0.065
TTTTATCCTT | 1 ± 0.028
GGCGGGGTCG | 1.01 ± 0.038
TCCATTTTAA | 1.055 ± 0.0017
CCCTGTGAGC | 1.08 ± 0.013
AAAATATGTT | 1 ± 0.023
GGGAATAACT | 0.998 ± 0.037
CAGATGATAT | 0.992 ± 0.047
GGCGTAAGCT | 1.012 ± 0.0095
CAAGGAAGAT | 1.02 ± 0.014
ATCGTTGTGG | 0.9893 ± 0.0048
GAGGTTATTA | 1 ± 0.066
AATCGCGGCT | 1.01 ± 0.029
CTCAAATATG | 1.002 ± 0.0051
GCTGCTAGTG | 0.97 ± 0.017
TTAGTTGGAC | 1.03 ± 0.038
CGCGGGCCGT | 0.981 ± 0.024
CTAGCTGCGA | 1.08 ± 0.055
AAAAAGGGTA | 0.988 ± 0.05
TCGGTAGTGG | 1 ± 0.028
TTCGATAAGA | 0.999 ± 0.06
ATTTGATCTG | 0.985 ± 0.014
GTGACTCCGA | 1.78 ± 0.12

Sequence | switch fluorescence ratio
ATCCCGAAGC | 1.93 ± 0.18
GGCGAGACGC | 0.981 ± 0.031
TCGAGGATGT | 0.976 ± 0.019
CGGCCATTCG | 0.982 ± 0.021
GGGGGTCTTT | 0.99 ± 0.023
CCCTAGGGTT | 1.44 ± 0.56
AGAGGCCGTT | 0.9965 ± 0.0074
TTCCCCATTG | 1.09 ± 0.023
CTTTTGAAGT | 0.983 ± 0.01
TTTTTTAGT | 0.992 ± 0.027
GCACTGGGGC | 1.01 ± 0.023
TGCCTCTTTT | 0.9886 ± 0.006
GGGTGTGGGT | 0.965 ± 0.026
AAAGTTTTCA | 1.02 ± 0.028
GTGGTTCCTG | 0.967 ± 0.015
AAGGCTCTTG | 0.986 ± 0.018
GTCGAGGATG | 1.018 ± 0.0049
GGGTTTGACT | 0.998 ± 0.031
TCGGCGGCTG | 0.984 ± 0.01
TCAAGGCCTG | 1.01 ± 0.042
GCTAGCGGTC | 1.08 ± 0.02
TGTTGCCGTT | 0.886 ± 0.057
TTGGGGTATG | 1.01 ± 0.012

Sequence | switch fluorescence ratio
TTTGCTGAAA | 0.964 ± 0.026
TGTTGTCAGG | 0.99 ± 0.025
AATAGATTGC | 1.003 ± 0.0092
CGTATCCCGT | 0.974 ± 0.014
CCTGGAGGGG | 1.07 ± 0.066
GAGAGTATGG | 0.982 ± 0.049
CTTTTTTGAT | 0.9831 ± 0.0061
TGCAGGGATG | 0.986 ± 0.041
AGAAGGGGGC | 0.989 ± 0.062
AGTGGTGGTT | 0.977 ± 0.057
CGGATCTTTA | 1.01 ± 0.037
TTGGCATACT | 2.64 ± 2.2
GGATATCGAG | 0.9982 ± 0.0069
TATAGTGTAA | 1.01 ± 0.048
TGATATTTTG | 1 ± 0.016
TTGTATCAGT | 1.01 ± 0.024
AGGTTGGGTT | 0.997 ± 0.023
TGAGTCACCT | 1.16 ± 0.037
ACGATGATCT | 1.06 ± 0.019
